Data from patent publication US20100150939A1.

Legend:
[1] = molecular target: recombinant human ADAM10 (amino residues 18-672, Cat. No 936-AD) (human) (UniProt O14672)
[2] = molecular target: 7 inhibiting periplasm out of 31 periplasm tested for ADAM9
[3] = molecular target: 9 activating periplasm out of 31 periplasm tested for ADAM9
[4] = molecular target: 5 inhibiting periplasm out of 27 periplasm tested for ADAM10
[5] = molecular target: 6 activating periplasm out of 27 periplasm tested for ADAM10

| Binder | Percent activity compared to no periplasm (50x excess) [1] | further results |
| --- | --- | --- |
| Nanobody 39-D1 (VHH) VHH: KVQLVESGGGLVQAGGSLRLSCAASGNIFINNAVGWYRQAPGKQREMVAAMLSGGSTNYADSVKGRFTISRDNAKNTVYLQMNSLKPEDTAVYYCNVQVNGTWARWGQGTQVTVSS | 84.6 percent | – |
| recombinant human ADAM9 (amino residues 1-697, R&D Systems, Cat. No. 939-AD) (protein) AARPGFQQTSHLSSYEIITPWRLTRERREAPRPYSKQVSYVIQAEGKEHIIHLERNKDLLPEDFVVYTYNKEGTLITDHPNIQNHCHYRGYVEGVHNSSIALSDCFGLRGLLHLENASYGIEPLQNSSHFEHIIYRMDDVYKEPLKCGVSNKDIEKETAKDEEEEPPSMTQLLRRRRAVLPQTRYVELFIVVDKERYDMMGRNQTAVREEMILLANYLDSMYIMLNIRIVLVGLEIWTNGNLINIVGGAGDVLGNFVQWREKFLITRRRHDSAQLVLKKGFGGTAGMAFVGTVCSRSHAGGINVFGQITVETFASIVAHELGHNLGMNHDDGRDCSCGAKSCIMNSGASGSRNFSSCSAEDFEKLTLNKGGNCLLNIPKPDEAYSAPSCGNKLVDAGEECDCGTPKECELDPCCEGSTCKLKSFAECAYGDCCKDCRFLPGGTLCRGKTSECDVPEYCNGSSQFCQPDVFIQNGYPCQNNKAYCYNGMCQYYDAQCQVIFGSKAKAAPKDCFIEVNSKGDRFGNCGFSGNEYKKCATGNALCGKLQCENVQEIPVFGIVPAIIQTPSRGTKCWGVDFQLGSDVPDPGMVNEGTKCGAGKICRNFQCVDASVLNYDCDVQKKCHGHGVCNSNKNCHCENGWAPPNCETKGYGGSVDSGPTYNEMNTALRD | – | ADAM protease assay, fluorogenic peptide substrate ES003, periplasms containing Nanobodies [2]: 7 showed significant inhibition; ADAM protease assay, fluorogenic peptide substrate ES003, periplasms containing Nanobodies [3]: 9 were significantly activating |
| Nanobody 39-F1 (VHH) VHH: EVQLVESGGGLVQAGGSLRLSCAASERIFSTYFMGWFRQAPGKEREFVAFISGNGGSTDYADSVKGRFAISRDNVKNTLYLQMSSLKPDDTAVYYCAVAGRQIKSTWGYWGQGTQVTVSS | 144 percent | – |
| Nanobody 32-E1, E6, 39-A2 (VHH) VHH: EVQLVESGGGLVQAGGSLRLSCAASERIFSTYFMGWFRQAPGKEREFVAFISGNGGSTDYADSVKGRFAISRDNVKNTLYLQMSSLKPDDTAVYYCAVAGRQIKSTWDYWGQGTQVTVSS | 163 percent | – |
| Nanobody 33-A1 (VHH) VHH: EVQLVESGGGLVQAGGSLRLSCAASGDTFSRYSMGWFRQAPGKEREFVVYITRSGRTTYYQDSVKGRFTISRDNAKNTVYLQMNSLKPEDTAVYYCAAMRSGNVRYPERYDYWGQGTQVTVSS | 86.5 percent | – |
| Nanobody 39-B1 (VHH) VHH: EVQLVESGGGLVQAGGSLRLSCARSGRISNINIMAWYRQAPGKTRDMVAAIIGDSTNYADSVKGRFTISRDNAKNTVYLHMNRLKPEDTGVYYCKISGVDWGQGTQVTVSS | 67.1 percent | – |
| Nanobody 39-D8, E8 (VHH) VHH: EVQLVESGGGLVRARGSLRLSCAASGGTFSRYAMGWFRQAPGKEREFVAAISRSGGNTYFTESVKGRFTMSRDNAKNTVYLQMNSLKPEDTAVYYCAARSAAVYTTTVYLVDFEYNYWGQGTQVTVSS | 76.4 percent | – |
| Nanobody 39-C8 (VHH) VHH: EMQLVESGGGLVQTGGSLRLSCAASGRTFTSYCVGWWRQAPGKERDVVAAITRGSNSTDYVDSVKGRFTISRDNAENTVYLQMNSLKPEDTAVYYCAADINCRNLYTGRPEYWGQGTQVTVSS | 194 percent | – |
| Nanobody 33-D1 (VHH) VHH: EVQLVESGGGLVQAGDSLRLSCAATGRTFSSDAMGWFRQAPGKERAFVAGINYNSVYRYYTDSVEGRFTISRDNAKNTVYLQMNSLKPEDTAVYYCAADSDYYSLIGGRPVNYWGQGTQVTVSS | 85.6 percent | – |
| recombinant human ADAM10 (amino residues 18-672, Cat. No 936-AD) (protein) GGQYGNPLNKYIRHYEGLSYNVDSLHQKHQRAKRAVSHEDQFLRLDFHAHGRHFNLRMKRDTSLFSDEFKVETSNKVLDYDTSHIYTGHIYGEEGSFSHGSVIDGRFEGFIQTRGGTFYVEPAERYIKDRTLPFHSVIYHEDDINYPHKYGPQGGCADHSVFERMRKYQMTGVEEVTQIPQEEHAANGPELLRKKRTTSAEKNTCQLYIQTDHLFFKYYGTREAVIAQISSHVKAIDTIYQTTDFSGIRNISFMVKRIRINTTADEKDPTNPFRFPNIGVEKFLELNSEQNHDDYCLAYVFTDRDFDDGVLGLAWVGAPSGSSGGICEKSKLYSDGKKKSLNTGIITVQNYGSHVPPKVSHITFAHEVGHNFGSPHDSGTECTPGESKNLGQKENGNYIMYARATSGDKLNNNKFSLCSIRNISQVLEKKRNNCFVESGQPICGNGMVEQGEECDCGYSDQCKDECCFDANQPEGRKCKLKPGKQCSPSQGPCCTAQCAFKSKSEKCRDDSDCAREGICNGFTALCPASDPKPNFTDCNRHTQVCINGQCAGSICEKYGLEECTCASSDGKDDKELCHVCCMKKMDPSTCASTGSVQWSRHFSGRTITLQPGSPCNDFRGYCDVFMRCRLVDADGPLARLKKAIFSPELYENIAE | – | ADAM protease assay, fluorogenic peptide substrate ES003, periplasms containing Nanobodies [4]: 5 inhibited significantly (less than 40% residual activity); ADAM protease assay, fluorogenic peptide substrate ES003, periplasms containing Nanobodies [5]: 6 activated significantly (more than 200% initial activity) |
